# B1: UPF3B, endogenous (natural protein, human (endogenous in HEK293T and U2OS), UniProt Q9BZI7 1-483, looked up)
# chain: MKEEKEHRPKEKRVTLLTPAGATGSGGGTSGDSSKGEDKQDRNKEKKEALSKVVIRRLPPTLTKEQLQEHLQPMPEHDYFEFFSNDTSLYPHMYARAYINFKNQEDIILFRDRFDGYVFLDNKGQEYPAIVEFAPFQKAAKKKTKKRDTKVGTIDDDPEYRKFLESYATDNEKMTSTPETLLEEIEAKNRELIAKKTTPLLSFLKNKQRMREEKREERRRREIERKRQREEERRKWKEEEKRKRKDIEKLKKIDRIPERDKLKDEPKIKVHRFLLQAVNQKNLLKKPEKGDEKELDKREKAKKLDKENLSDERASGQSCTLPKRSDSELKDEKPKRPEDESGRDYREREREYERDQERILRERERLKRQEEERRRQKERYEKEKTFKRKEEEMKKEKDTLRDKGKKAESTESIGSSEKTEKKEEVVKRDRIRNKDRPAMQLYQPGARSRNRLCPPDDSTKSGDSAAERKQESGISHRKEGGEE
# notes: UPF3B, endogenous in HEK293T and U2OS cells; also called up-frameshift 3B; source: endogenous, HEK293T and U2OS lysates
# How the values were obtained:
# IRE1α^S724A = biological target: T1, IRE1α^S724A (human, UniProt O75460 19-977, S724A); test: co-IP; lysates of transfected HEK293T or U2OS cells (24 h) in NETN buffer (20 mM Tris-HCl pH 8.0, 100 mM NaCl, 1 mM EDTA, 0.5% NP-40), IP with anti-Flag (M2) magnetic beads or the indicated antibodies, western blot; Fig. 3G two-way; conditions: partners not purified
# T1 construct: IRE1α, human, point mutant; source: HEK293T and U2OS, transfected, in lysate
# [1] = biological target: T2, inositol-requiring enzyme-1α (IRE1α), endogenous (human (endogenous in HEK293T and U2OS), UniProt O75460 19-977); test: co-IP; endogenous proteins, lysates of HEK293T and U2OS cells, IP with the indicated antibodies (anti-IRE1α), IgG as negative control; also with RNase A pre-treatment of lysates, in shUPF1 and shUPF2 cells, after STF-083010 or Kira6 (10 or 50 μM, 6 h), BiP overexpression, siBiP, UPF3B overexpression; conditions: partners not purified
# T2 construct: inositol-requiring enzyme-1α (IRE1α), endogenous in HEK293T and U2OS cells; source: endogenous, HEK293T and U2OS lysates
# T2 sequence (O75460 19-977): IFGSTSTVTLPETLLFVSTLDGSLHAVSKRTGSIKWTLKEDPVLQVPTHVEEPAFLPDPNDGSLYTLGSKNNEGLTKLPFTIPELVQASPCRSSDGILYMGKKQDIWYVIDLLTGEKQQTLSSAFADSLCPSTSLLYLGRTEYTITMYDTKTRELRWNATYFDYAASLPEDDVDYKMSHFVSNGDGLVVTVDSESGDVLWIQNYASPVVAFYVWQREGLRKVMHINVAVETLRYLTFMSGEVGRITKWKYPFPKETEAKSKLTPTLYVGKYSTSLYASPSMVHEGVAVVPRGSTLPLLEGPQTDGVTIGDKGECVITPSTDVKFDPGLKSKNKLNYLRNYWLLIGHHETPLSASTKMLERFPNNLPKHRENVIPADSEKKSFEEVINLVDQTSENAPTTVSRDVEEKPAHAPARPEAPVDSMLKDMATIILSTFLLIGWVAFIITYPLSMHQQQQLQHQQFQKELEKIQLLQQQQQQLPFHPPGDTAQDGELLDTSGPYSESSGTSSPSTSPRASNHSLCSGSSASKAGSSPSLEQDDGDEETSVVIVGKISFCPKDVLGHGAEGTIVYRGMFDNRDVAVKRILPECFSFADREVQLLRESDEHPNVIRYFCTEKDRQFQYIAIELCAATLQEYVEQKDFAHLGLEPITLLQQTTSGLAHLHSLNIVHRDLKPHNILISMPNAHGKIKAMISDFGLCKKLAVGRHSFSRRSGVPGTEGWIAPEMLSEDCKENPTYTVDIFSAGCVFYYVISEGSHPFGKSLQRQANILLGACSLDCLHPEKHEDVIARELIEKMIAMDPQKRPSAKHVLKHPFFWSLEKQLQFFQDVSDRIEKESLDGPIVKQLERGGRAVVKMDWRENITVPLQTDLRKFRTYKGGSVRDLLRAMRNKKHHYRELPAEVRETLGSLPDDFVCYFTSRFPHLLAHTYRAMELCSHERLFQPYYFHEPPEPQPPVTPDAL
# T1 sequence (O75460 19-977 S724A): as the sequence (O75460 19-977) above, with S706A counted along it
binder,measurement,setting,value
B1,fold change of the co-precipitate against IRE1α^WT,IRE1α^S724A,3.2 fold
same,fold change of the co-precipitate in Kira6-treated against control cells,[1],3.9 fold

# From PMC11322666, “UPF3B modulates endoplasmic reticulum stress through interaction with inositol-requiring enzyme-1α” (Cell Death & Disease, 2024)
